Results published in patent US20250250357A1 (NANJING ZAIMING PHARMACEUTICAL, published 2025).

How the values were obtained:
[1] = target: T1, human MSLN protein, endogenously expressed on Hela and OVCAR3 cells (human, UniProt Q13421 296-598); assay: FACS on OVCAR3 cells; antibody 0.0064 nM
T1 construct: whole, on cells; also called mesothelin

[2] = target: T2, human MSLN-FL-his protein (human, UniProt Q13421 296-580); assay: competitive ELISA; row F2.24.10
T2 construct: made in HEK293E cells, purified on nickel column; also called hMSLN-FL-his; human MSLN full-length protein; not shown: His tag

[3] = target: T3, human MSLN-R2-his protein (human, UniProt Q13421 391-486); assay: ELISA; antibody 100 nM
T3 construct: also called hMSLN-R2-his; not shown: His tag

[4] = target: T3, human MSLN-R2-his protein; assay: ELISA; antibody 0 nM (blank)
[5] = target: T3, human MSLN-R2-his protein; assay: ELISA; antibody 0.01 nM
[6] = target: T1, human MSLN protein, endogenously …; assay: FACS on OVCAR3 cells; antibody 0.16 nM
[7] = target: T3, human MSLN-R2-his protein; assay: ELISA; antibody 1 nM
[8] = target: T3, human MSLN-R2-his protein; assay: ELISA; antibody 0.001 nM
[9] = target: T2, human MSLN-FL-his protein; assay: competitive ELISA; row Tab108 (R3)
Experimental: (§1) In order to identify antigen-binding sites of antibodies, MSLN chimeric antibodies were grouped using competitive ELISA.
(§2) The chimeric antibodies were diluted to 2 μg/mL with PBS and allowed to coat 96-well high-adsorption ELISA plates at 50 μL/well. After the plates were coated at 4° C. overnight, 250 μL of a blocking buffer (PBS containing 2% (w/w) BSA) was added for two hours of blocking at room temperature. 40 μg/mL of the antibodies to be tested were added, and then the human MSLN-FL-His protein with an EC₈₀ concentration corresponding to each of the antibodies to be tested was added for incubation for 2 h. The plates were washed 5 times with PBS, an HRP-labeled anti-His secondary antibody (purchased from Genescript, Cat. No. A00612) was then added for incubation for 1 h, and the plates were washed 5 times again. A TMB substrate was added at 50 μL/well, and after 10 minutes of incubation at room temperature, a stop solution (1.0 M HCl) was added at 50 μL/well. OD₄₅₀ nm values were read using an ELISA plate reader (Insight, purchased from PerkinElmer), and the competition rate between the antibodies was calculated according to the OD₄₅₀ nm values using a formula.

[10] = target: T2, human MSLN-FL-his protein; assay: competitive ELISA; row F1.35.24
Experimental: as §1, §2

[11] = target: T4, human MSLN-R3-his protein (human, UniProt Q13421 487-598); assay: ELISA; antibody 0.001 nM
T4 construct: also called hMSLN-R3-his; not shown: His tag

[12] = target: T2, human MSLN-FL-his protein; assay: competitive ELISA; row F2.13.3
Experimental: as §1, §2

[13] = target: T2, human MSLN-FL-his protein; assay: competitive ELISA; row F1.56.1
Experimental: as §1, §2

[14] = target: T1, human MSLN protein, endogenously …; assay: FACS on OVCAR3 cells; antibody 0.8 nM
[15] = target: T2, human MSLN-FL-his protein; assay: competitive ELISA; row F2.16.10
Experimental: as §1, §2

[16] = target: T4, human MSLN-R3-his protein; assay: ELISA; antibody 100 nM
[17] = target: T4, human MSLN-R3-his protein; assay: ELISA; antibody 0.0001 nM
[18] = target: T2, human MSLN-FL-his protein; assay: competitive ELISA; row Tab142 (R1)
Experimental: as §1, §2

[19] = target: T4, human MSLN-R3-his protein; assay: ELISA; antibody 1 nM
[20] = target: T3, human MSLN-R2-his protein; assay: ELISA; antibody 10 nM
[21] = target: T2, human MSLN-FL-his protein; assay: competitive ELISA; row Tab107 (conformation)
Experimental: as §1, §2

[22] = target: T3, human MSLN-R2-his protein; assay: ELISA; antibody 0.0001 nM
[23] = target: T1, human MSLN protein, endogenously …; assay: FACS on OVCAR3 cells; antibody 100 nM
[24] = target: T2, human MSLN-FL-his protein; assay: competitive ELISA; row F1.2.12
Experimental: as §1, §2

[25] = target: T1, human MSLN protein, endogenously …; assay: FACS on OVCAR3 cells; antibody 0.032 nM
[26] = target: T4, human MSLN-R3-his protein; assay: ELISA; antibody 0.1 nM
[27] = target: T1, human MSLN protein, endogenously …; assay: FACS on OVCAR3 cells; antibody 20 nM
[28] = target: T3, human MSLN-R2-his protein; assay: ELISA; antibody 0.1 nM
[29] = target: T4, human MSLN-R3-his protein; assay: ELISA; antibody 0 nM (blank)
[30] = target: T1, human MSLN protein, endogenously …; assay: FACS on OVCAR3 cells; antibody 0.00128 nM
[31] = target: T2, human MSLN-FL-his protein; assay: competitive ELISA; row F2.58.8
Experimental: as §1, §2

[32] = target: T1, human MSLN protein, endogenously …; assay: FACS on OVCAR3 cells; antibody 4 nM

T4 sequence (Q13421 495-606): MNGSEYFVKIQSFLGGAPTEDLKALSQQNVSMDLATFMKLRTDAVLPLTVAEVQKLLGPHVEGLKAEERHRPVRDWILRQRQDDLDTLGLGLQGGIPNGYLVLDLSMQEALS
T3 sequence (Q13421 other isoform, or with tags, fused parts or gaps): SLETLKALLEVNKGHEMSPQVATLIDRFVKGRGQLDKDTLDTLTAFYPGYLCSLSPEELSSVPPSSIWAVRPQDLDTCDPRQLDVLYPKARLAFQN
T1 sequence (Q13421 other isoform, or with tags, fused parts or gaps): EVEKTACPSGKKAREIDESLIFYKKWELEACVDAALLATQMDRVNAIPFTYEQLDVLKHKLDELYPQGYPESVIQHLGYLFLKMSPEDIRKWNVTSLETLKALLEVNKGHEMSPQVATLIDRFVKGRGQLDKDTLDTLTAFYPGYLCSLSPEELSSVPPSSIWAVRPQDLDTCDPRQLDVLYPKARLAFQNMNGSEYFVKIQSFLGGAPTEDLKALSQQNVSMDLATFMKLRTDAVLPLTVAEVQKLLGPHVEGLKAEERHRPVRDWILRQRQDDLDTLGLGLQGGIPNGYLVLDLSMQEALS
T2 sequence (Q13421 other isoform, or with tags, fused parts or gaps): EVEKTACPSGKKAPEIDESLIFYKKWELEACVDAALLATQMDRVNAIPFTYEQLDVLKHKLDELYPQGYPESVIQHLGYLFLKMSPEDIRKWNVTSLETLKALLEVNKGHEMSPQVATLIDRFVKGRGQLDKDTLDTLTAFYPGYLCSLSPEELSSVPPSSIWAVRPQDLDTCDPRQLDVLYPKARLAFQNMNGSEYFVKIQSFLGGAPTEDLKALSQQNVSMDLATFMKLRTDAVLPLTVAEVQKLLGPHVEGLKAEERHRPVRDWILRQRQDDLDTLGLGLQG

B1: Tab107 (YP3, hIgG1) (antibody, V domains shown)
VH: QEQLVESGGGLVQPGASLTLTCTASGIDFSRYYMCWVRQAPGKGLEGIACIYIGGSGSTYYASWAKGRFTISKASSTTVTLQMTSLTAADTATYFCARGTNLNYIFRLWGPGTLVTVSS
VL: DVVMTQTPSPVSAAVGGTVTIKCQASQSINNGLAWYQQKPGQPPRLLIYSASNLESGVPSRFKGSGSGTEFTLTISDLECDDAATYYCQCIWDGNSYVNAFGGGTEVVVRT
notes: Control antibody; VH and VL recombined into human IgG1 CH and CL expression vectors; also called YP3 human IgG1 antibody
- FACS fluorescence intensity [1]: 80
- competition rate [2]: -19%
- OD450 nm [3]: 0.09
- OD450 nm [4]: 0.05
- OD450 nm [5]: 0.04
- FACS fluorescence intensity [6]: 229
- OD450 nm [7]: 0.05
- OD450 nm [8]: 0.05
- competition rate [9]: -80%
- competition rate [10]: 8%
- OD450 nm [11]: 0.05
- competition rate [12]: -203%
- competition rate [13]: -124%
- FACS fluorescence intensity [14]: 619
- competition rate [15]: -104%
- OD450 nm [16]: 0.09
- OD450 nm [17]: 0.05
- competition rate [18]: -6%
- OD450 nm [19]: 0.05
- OD450 nm [20]: 0.05
- competition rate [21]: 94%
- OD450 nm [22]: 0.04
- FACS fluorescence intensity [23]: 3150
- competition rate [24]: -41%
- FACS fluorescence intensity [25]: 111
- OD450 nm [26]: 0.05
- FACS fluorescence intensity [27]: 2640
- OD450 nm [28]: 0.04
- OD450 nm [29]: 0.05
- FACS fluorescence intensity [30]: 76
- competition rate [31]: 9%
- FACS fluorescence intensity [32]: 1520
